According to patent publication US20250320312A1 (OXITOPE PHARMA B V, published 2025):

B1: PcOxP_DB01_E02 (scFv, V domains shown)
VH: EVQLLESGGGLVQPGGSLRLSCAASGFTFSDYYMEWVRQAPGKGLEWVAASRNKGNDYTTEYADSVKGRFTISRDNSKNTLYLQMNSLRAEDTAVYYCARDYYGSSYWYFDVWGQGTLVTVSS
VL: DIVMTQSPDSLAVSLGERATINCTASESLYSSKHKVHYLAWYQQKPGQPPKLLIYGASNRYIGVPDRFSGSGSGTDFTLTISSLQAEDVAVYYCAQFYSYPLTFGGGTKVEIK
notes: scFv in periplasmic extract
B2: PcOxP_DB01_F11 (scFv, V domains shown)
VH: EVQLLESGGGLVQPGGSLRLSCAASGFTFSSYYMEWVRQAPGKGLEWVAASRNKANDYTTEYADSVKGRFTISRDNSKNTLYLQMNSLRAEDTAVYYCARDYYGSSYWYYDVWGQGTLVTVSS
VL: DIVMTQSPDSLAVSLGERATINCTASESLYSSKHKVHYLAWYQQKPGQPPKLLIYGASNRYIGVPDRFSGSGSGTDFTLTISSLQAEDVAVYYCAQFYSYPLTFGGGTKVEIK
notes: scFv in periplasmic extract
B3: PcOxP_DB01_F03 (scFv, V domains shown)
VH: EVQLLESGGGLVQPGGSLRLSCAASGFTFSDSYMEWVRQAPGKGLEWVAASRNKYNDYTTEYADSVKGRFTISRDNSKNTLYLQMNSLRAEDTAVYYCARDYYGSSYWYFDVWGQGTLVTVSS
VL: DIVMTQSPDSLAVSLGERATINCTASESLYSSKHKVHYLAWYQQKPGQPPKLLIYGASNRYIGVPDRFSGSGSGTDFTLTISSLQAEDVAVYYCAQFYSYPLTFGGGTKVEIK
notes: scFv in periplasmic extract
B4: PcOxP_DB01_F08 (scFv, V domains shown)
VH: EVQLLESGGGLVQPGGSLRLSCAASGFTFSDGYMEWVRQAPGKGLEWVAASRNKWNDYTTEYADSVKGRFTISRDNSKNTLYLQMNSLRAEDTAVYYCARDYYGSSYWYFDVWGQGTLVTVSS
VL: DIVMTQSPDSLAVSLGERATINCTASESLYSSKHKVHYLAWYQQKPGQPPKLLIYGASNRYSGVPDRFSGSGSGTDFTLTISSLQAEDVAVYYCAQFYSYPLTFGGGTKVEIK
notes: scFv in periplasmic extract
B5: PcOxP_DB01_E08 (scFv, V domains shown)
VH: EVQLLESGGGLVQPGGSLRLSCAASGDTFSDFYMEWVRQAPGKGLEWVAASRNKANAYTTEYADSVKGRFTISRDNSKNTLYLQMNSLRAEDTAVYYCARDYYGQSYWYFDVWGQGTLVTVSS
VL: DIVMTQSPDSLAVSLGERATINCTASESLYSSKHKVHYLAWYQQKPGQPPKLLIYGASNRYIGVPDRFSGSGSGTDFTLTISSLQAEDVAVYYCAQFYSYPLTFGGGTKVEIK
notes: scFv in periplasmic extract
B6: PcOxP_DB01_E07 (scFv, V domains shown)
VH: EVQLLESGGGLVQPGGSLRLSCAASGFTFSSYYMEWVRQAPGKGLEWVAASRNKANDYTTEYADSVKGRFTISRDNSKNTLYLQMNSLRAEDTAVYYCARDYYGSSYWYFDVWGQGTLVTVSS
VL: DIVMTQSPDSLAVSLGERATINCTASESLYSSKHKVDYLAWYQQKPGQPPKLLIYGASNRYIGVPDRFSGSGSGTDFTLTISSLQAEDVAVYYCAQFYSYPLTFGGGTKVEIK
notes: scFv in periplasmic extract
B7: PcOxP_DB01_G03 (scFv, V domains shown)
VH: EVQLLESGGGLVQPGGSLRLSCAASGFTFSDGYMEWVRQAPGKGLEWVAASRNKANDYTTEYADSVKGRFTISRDNSKNTLYLQMNSLRAEDTAVYYCARDYYGSSYWYFDVWGQGTLVTVSS
VL: DIVMTQSPDSLAVSLGERATINCTASTSLYSSKHKVHYLAWYQQKPGQPPKLLIYGASNRYIGVPDRFSGSGSGTDFTLTISSLQAEDVAVYYCAQFYTYPLTFGGGTKVEIK
notes: scFv in periplasmic extract
B8: PcOxP_DB01_F06 (scFv, V domains shown)
VH: EVQLLESGGGLVQPGGSLRLSCAASGDTFSDFYMEWVRQAPGKGLEWVAASRNKANDYTTEYADSVKGRFTISRDNSKNTLYLQMNSLRAEDTAVYYCARDYYGSSYWYFDVWGQGTLVTVSS
VL: DIVMTQSPDSLAVSLGERATINCKSSQSLYYSSNKKNYLAWYQQKPGQPPKLLIYGASNRYGGVPDRFSGSGSGTDFTLTISSLQAEDVAVYYCAQFYRYPLTFGGGTKVEIK
notes: scFv in periplasmic extract
B9: PcOxP_DB01_F07 (scFv, V domains shown)
VH: EVQLLESGGGLVQPGGSLRLSCAASGDTFSDFYLEWVRQAPGKGLEWVAASRNKANGYTTEYADSVKGRFTISRDNSKNTLYLQMNSLRAEDTAVYYCARDYYHSSYWYFDVWGQGTLVTVSS
VL: DIVMTQSPDSLAVSLGERATINCTASESLYSSKHKVHYLAWYQQKPGQPPKLLIYGASNRYIGVPDRFSGSGSGTDFTLTISSLQAEDVAVYYCAHFYSYPLTFGGGTKVEIK
notes: scFv in periplasmic extract
B10: PcOxP_DB01_F01 (scFv, V domains shown)
VH: EVQLLESGGGLVQPGGSLRLSCAASGFPFSDFYMEWVRQAPGKGLEWVAASRNKANDYTTEYADSVKGRFTISRDNSKNTLYLQMNSLRAEDTAVYYCARDYYGSPYWYFDVWGQGTLVTVSS
VL: DIVMTQSPDSLAVSLGERATINCTASESVYSSKNKKHYLAWYQQKPGQPPKLLIYGASNRYIGVPDRFSGSGSGTDFTLTISSLQAEDVAVYYCAQFYTYPLTFGGGTKVEIK
notes: scFv in periplasmic extract
B11: PcOxP_DB01_F12 (scFv, V domains shown)
VH: EVQLLESGGGLVQPGGSLRLSCAASGFTHSDFYMEWVRQAPGKGLEWVAASRNKANGYTTEYADSVKGRFTISRDNSKNTLYLQMNSLRAEDTAVYYCARDYYGSSYWYFDSWGQGTLVTVSS
VL: DIVMTQSPDSLAVSLGERATINCTASESLYSSKHKVHYLAWYQQKPGQPPKLLIYGASNRYVGVPDRFSGSGSGTDFTLTISSLQAEDVAVYYCAQFYSYPLTFGGGTKVEIK
notes: scFv in periplasmic extract
B12: PcOxP_DB01_E09 (scFv, V domains shown)
VH: EVQLLESGGGLVQPGGSLRLSCAASGNTFSDFYMEWVRQAPGKGLEWVAASRNKANDYTTEYADSVKGRFTISRDNSKNTLYLQMNSLRAEDTAVYYCARDYYGSSYWYFDVWGQGTLVTVSS
VL: DIVMTQSPDSLAVSLGERATINCTASESLYSSKHKVHYLAWYQQKPGQPPKLLIYGASNRYIGVPDRFSGSGSGTDFTLTISSLQAEDVAVYYCANFYSYPLTFGGGTKVEIK
notes: scFv in periplasmic extract
B13: PcOxP_DB01_E03 (scFv, V domains shown)
VH: EVQLLESGGGLVQPGGSLRLSCAASGFGFSDFYMEWVRQAPGKGLEWVGASRNKHNDYTTEYADSVKGRFTISRDNSKNTLYLQMNSLRAEDTAVYYCARDYYGSSYWYFDVWGQGTLVTVSS
VL: DIVMTQSPDSLAVSLGERATINCKSSESVYSSKHKKHYLAWYQQKPGQPPKLLIYGASNRYIGVPDRFSGSGSGTDFTLTISSLQAEDVAVYYCAQFYSYPLTFGGGTKVEIK
notes: scFv in periplasmic extract
B14: PcOxP_DB01_G02 (scFv, V domains shown)
VH: EVQLLESGGGLVQPGGSLRLSCAASGFLFSDFYMEWVRQAPGKGLEWVAASRNKANDYTTTYADSVKGRFTISRDNSKNTLYLQMNSLRAEDTAVYYCARDYYGSHYWYFDVWGQGTLVTVSS
VL: DIVMTQSPDSLAVSLGERATINCTASESLYSSKHKVHYLAWYQQKPGQPPKLLIYGASNREIGVPDRFSGSGSGTDFTLTISSLQAEDVAVYYCAQFYFYPLTFGGGTKVEIK
notes: scFv in periplasmic extract
B15: PcOxP_DB01_G05 (scFv, V domains shown)
VH: EVQLLESGGGLVQPGGSLRLSCAASGFTFSSYYMEWVRQAPGKGLEWVAASRNKANEYTTEYADSVKGRFTISRDNSKNTLYLQMNSLRAEDTAVYYCARDYYGSSYWYFDVWGQGTLVTVSS
VL: DIVMTQSPDSLAVSLGERATINCTASESLYSSKHKVHYLAWYQQKPGQPPKLLIYGASNRYIGVPDRFSGSGSGTDFTLTISSLQAEDVAVYYCANFYSYPLTFGGGTKVEIK
notes: scFv in periplasmic extract
B16: PcOxP_DB01_G04 (scFv, V domains shown)
VH: EVQLLESGGGLVQPGGSLRLSCAASGFTFSDGYMEWVRQAPGKGLEWVAASRNKANDYTTEYADSVKGRFTISRDNSKNTLYLQMNSLRAEDTAVYYCARDYYGSSYWYFDVWGQGTLVTVSS
VL: DIVMTQSPDSLAVSLGERATINCTASESLYSSKHKVHYLAWYQQKPGQPPKLLIYGASNRYSGVPDRFSGSGSGTDFTLTISSLQAEDVAVYYCAQFYSYPLTFGGGTKVEIK
notes: scFv in periplasmic extract

Tests used:
Test in all cases: scFv ELISA
BSA = BSA (UniProt P02769)
BSA, sequence (P02769 25-607 limits assumed): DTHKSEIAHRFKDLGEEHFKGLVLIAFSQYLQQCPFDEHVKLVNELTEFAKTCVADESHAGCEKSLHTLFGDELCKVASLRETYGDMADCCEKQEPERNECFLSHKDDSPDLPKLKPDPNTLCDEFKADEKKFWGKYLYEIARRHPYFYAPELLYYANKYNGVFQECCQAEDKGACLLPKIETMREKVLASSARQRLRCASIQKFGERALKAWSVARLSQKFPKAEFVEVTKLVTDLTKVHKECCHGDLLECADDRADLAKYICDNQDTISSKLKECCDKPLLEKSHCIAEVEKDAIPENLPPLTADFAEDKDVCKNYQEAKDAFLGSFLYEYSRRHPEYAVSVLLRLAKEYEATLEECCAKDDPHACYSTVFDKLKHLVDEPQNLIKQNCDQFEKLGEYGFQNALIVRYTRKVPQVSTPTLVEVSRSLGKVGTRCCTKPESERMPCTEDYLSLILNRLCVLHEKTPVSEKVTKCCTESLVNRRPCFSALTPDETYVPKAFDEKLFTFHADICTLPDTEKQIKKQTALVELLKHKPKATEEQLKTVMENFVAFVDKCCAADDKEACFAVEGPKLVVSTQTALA

[1] = target: Peptide 1: Biotin-…-[Tyr(PC)]-acid
[2] = target: Peptide 5: Biotin-…-[Tyr(PC)]-acid
[3] = target: T1, Peptide 4: Biotin-AGGGGSGGGGSGGGGSAAA-Tyr-acid (N-terminal biotin; C-terminal acid; no PC)
T1 construct: control peptide without PC
T1 peptide: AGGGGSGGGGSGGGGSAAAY
In short: (§1)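 Bound scFv was read as OD450 after HRP–anti-V5 detection, TMB development and HCl stop. PPE with BSA was incubated 1 h at RT on BSA-blocked wells coated overnight at 4° C. with peptide, or on streptavidin wells loaded 1 h with biotinylated PC-peptides at 1 μg/mL.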

[4] = target: T2, Peptide 8: Biotin-AEAAAKEAAAKEAAAKEAAAKAAA-Tyr-acid (N-terminal biotin; C-terminal acid; no PC)
T2 construct: control peptide without PC
T2 peptide: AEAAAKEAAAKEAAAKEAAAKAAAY
In short: as §1

Binder | OD450 (BSA) [OD450] | OD450 [1] [OD450] | OD450 [2] [OD450] | OD450 [3] [OD450] | OD450 [4] [OD450]
B1 | 0.07 | 0.46 | 1.02 | 0.05 | 0.05
B2 | 0.07 | 1.55 | 1.92 | 0.07 | 0.05
B3 | 0.08 | 0.8 | 1.41 | 0.07 | 0.08
B4 | 0.06 | 0.52 | 1.22 | 0.04 | 0.04
B5 | 0.06 | 0.47 | 0.82 | 0.05 | 0.04
B6 | 0.07 | 0.87 | 1.51 | 0.05 | 0.05
B7 | 0.07 | 0.43 | 0.94 | 0.05 | 0.05
B8 | 0.07 | 0.12 | 0.53 | 0.04 | 0.04
B9 | 0.06 | 0.31 | 0.81 | 0.04 | 0.04
B10 | 0.08 | 0.6 | 1.78 | 0.05 | 0.05
B11 | 0.06 | 0.76 | 1.43 | 0.05 | 0.05
B12 | 0.06 | 0.77 | 1.26 | 0.04 | 0.04
B13 | 0.08 | 0.86 | 1.54 | 0.05 | 0.05
B14 | 0.06 | 0.82 | 1.2 | 0.05 | 0.04
B15 | 0.08 | 0.69 | 1.24 | 0.05 | 0.05
B16 | 0.07 | 0.56 | 1.01 | 0.05 | 0.07
